Reference: paper PMC11960969, “Mdga2 deficiency leads to an aberrant activation of BDNF/TrkB signaling that underlies autism-relevant synaptic and behavioral changes in mice” (PLOS Biology, 2025)

B1: sp¦Q6A0D4¦RFTN1_MOUSE (protein, UniProt Q6A0D4 2-554, looked up)
Raftlin: GCSLNKLEKREEKRPGNIYSTLKRPQVETKVDVTYEYCFLEFTTLTAAELPRSSATRLASLRDLPDQLLELYQQGFSLAALHPFVQPTRRQEKILLEHIFRAILVKKTNRSQKAELHDEGYTLELDYCSSLEHLADQKLIPEFIKKVQEAASQGLKFVSVVPQYQPSVSSAGSRRLKPVANSVEDARDVKCTLGDRSSLENDTPKAAETDAATAGVNRRPETKPGSTGDVPSAQQPGIPSPSAENEAGEFPLRGLQPALDRSEGDPSNGPEELPSRKMEIFAFFNRPKSQQKCRQYYPVTIPLQVSKNGQTVSSLDASWLEHMSDHFRKGGVLVNAVFQLGMANDSFYGLTDGVFIFEAVSTEDNRTTQGYDAIVVEQWTVLEGTEVQTDYMPLLNSLAAYGWQLTCVLPTPILKTTREGNVSTKQIVFLQRPCLPQKTKKRESKFQWRFSRNEIHGRQTRKSKGKLSASNKQQAEENEKNLEDQFSKAGDVGNCVLGAPQWGRASEVREQRQGSAAVQNGPAGHNRDSVALRHSNPRAEAELAAGPTPTEAN
B2: sp¦Q3TVI8¦PBIP1_MOUSE (protein, UniProt Q3TVI8 1-727, looked up)
Pre-B-cell leukemia …: MASCPDSDNSWVLAGSENLPVETLGPEPRMDPESEGASQALRDSSKADGKELAGTLDGEEKLFQTESSQRETAVLTESAAKGTLGADGHGTEAPGDTVVQEDSQETPVATSLGPDTQDLESEIHPQNLPSSPRAVWKEHRCSSSDDDTDVDVEGLRRRRGREPSSSQPVVPVDVEDQAKGEGIGGELGISLNMCFLGALVLLGLGILLFSGTLLEPETGPMEEAELQVFPETGPETELVETLGNRQDEIEHLQASSVPPDSVPSLQSMGFLLDKLAKENQDIRLLQAQLQAQKEELQSLLHQPKGLEEENARLREALQQGKTSHQALESELQQLRARLQGLEANCVRGVDGVCLNWGGDPQDGKATKEQGHKGQEPDPSLLEQHKQLEAEAKALRQELQRQWQLLGSVHWDLQRGLRDAGRGAPAHPGLAELGHMLAQTLQDLENQGINTGRSPNDSEAWHQKKPHTQSPREWGGKEKWRGGQRDQKAEHWKPRKEESGQERQRSWRDEGREHTGRWREDRLRADESGSRKDSKRQDPKVHPRKDGNSHSVERQKHSWGKDNSPDALSSWEELLRRKYRPPQGCSGVADCARQEGLALFGVELAPVRQQELASVLREYLSRLPWAGQLTKQLPLSPAYFGEDGIFRHDRLRFRDFVDALEDSLEEVALKQTGDDDEVDDFEDFVFGHFFGDKALKKRSRKKEKHSWNPRVVGPREEHSRHPHHYHQG
B3: sp¦Q8C5W0¦CLMN_MOUSE (protein, UniProt Q8C5W0 1-1052, looked up)
Calmin: MAAQEWDWFQREELIGQISDIRVQNLQVERENVQKRTFTRWINLHLEKCDPPLEVTDLFVDIQDGKILMALLEVLSGRNLLHEYKSSSHRIFRLNNIAKALKFLEDSNVKLVSIDAAEIADGNPSLVLGLIWNIILFFQIKELTGNLSRSSPSSSLSPGSGGTDSDSSYPPTPTTERSVAVAVKDQRKAIKTLLSWVQRKTRKYGVAVQDFAGSWRSGLAFLAVIKAIDPSLVDMKQALEDSTRDNLEKAFSIAHDSLHIPRLLEPEDIMVDMPDEQSIVTYVAQFLERFPELEPEDFVNPDKEAPIESTFVRIKESPSEQGSRVLLLSENGERAYTVNQETSYPPPDKVFVCDQLESPTGFCLDSAPSHKLSDSSTEFMHEIIDQVLQGSTGKTGSIAEPTPESSILSTRKDGRRSNSLPVKKTVHFEADLHKDASCSKDPFYSSDFRFEGSPKATKELSKQDGHVSLAEVSKEKKKSEQEARLVLEAASDKVPESTVDGLDAVPQDAQPSQDSSFCNGTVESPSSQGEKGPPPSSPGDHTLLANSTELKVQLLTVEPMDKEDYFECIPLKASKFNRDLVDFASTSQAFGEDPSSHEKTRGEEEGSENHAEKPGKRKSKSPRAETEAAESRLEPKKLEPPPKDPEQEDQGHALPPETPADKKPKVYEKAKRKSTRHHSEEEGEAESGFSAVCEEEIPSAPPSTSVSLETLRSHSEEGLDFKPSPPLSKISVIPHDLFYYPHYEVPLAAVLEAYAEGGEDLKSEDTDLEHPEDSYLQDSREEEADEDEEEAQSSQSSCSFSLPVDNSYPSVSEHVSHVDGSSEGPTSALGPGSPPSHEDHQPKETKENGPVESQQSQEPPNPELPTKPLEEKLTEASTSSKKKEKRKHMDHVESSLFIAPGTVRSSDDLEENSSEHKVPSRNSHSDSSIYIRRHTNRSLELDHFSYVQLRNAADLDDRRNRVLNRYNSQKLTELILQFYGIRADMKREYKHARLSMTGTNSSGEAVPLGNQSPPNDSLTQFVQQPDVIYFILFLWLLVYCLLLFPQLDVSRL
B4: sp¦Q8BZ60¦STON2_MOUSE (protein, UniProt Q8BZ60 1-895, looked up)
Stonin-2: MTTLDHVIATHQSEWVSFSEEPLFPTPLEGGTEEHFPGLSSSSERSESSSGENHVVDEGSQDLSHSEQDDSSEKMGLISEAASPPGSPVQPTPDLASAISNWVQFEDDTPWSSTSPPHKETALTLTMPCWTCPSFDSLRRCPLTSESSWTTHSEDTSSPSVAPSYTDLQLINTEEQASGRASGTDSTDNSSSLQEDEEVEMEAISWWAGSPAMNGHPAAPPVTTARFPSWVTFEDNEVGCPSPPVPSPKKPNTPSAATAAPDVPFNSTGSFKRDRPKSTLMNLPKVQKLDISSLNRPPSVIEAPPWRATNPFLNETLQDVQPSPINPFSAFFEEQERRSQNSSVSSTTGKSQRDSLIVVYQDAISFDDSGKSQPHPDAIEKLKQLQIDDPDPVGNTALPDDDPTASVELDAPSPASALSQPRDGWPMMLRIPEKKNIMSSRHWGPIYIKLTASGYLQLYYEQGLEKPFREFKLEICHEVSEPRLQNYDENGRIHSLRIDRVTYKEKKKYQPKPAVAHAAEREQVIKLGTTNYDDFRSFIHAVQDRLMDLPVLSMDLSTVGLNYLEEEITVDVRDEFSGTVGKGDNQILQHHVLTRIHILSFLSGLAECRLGLNDILIKGNEIVSRQDIMPTTTTKWIKLHECRFHGCVDEDVFNSSRVILFNPLDACRFELMRFRTVFAEKTLPFTLRTAASINGAEVEVQSWLRMSPGFSSNRDPLTQVPCENVMVRYPVPSEWVKNFRRDSVLGEKSLKAKVNRGASFGSAGASGSEPVMRVTLGTAKYEHAFNSIVWRINRLPDKNSASGHPHCFFCHLELGSDREVPSRFANYVNVEFSMPTTSASKAAVRSVSVEDKPDVRKWVNYSAHYSYKVEIEQKKSLKPDFEGEDLENPKECGVQ
B5: sp¦P43135¦COT2_MOUSE (protein, UniProt P43135 1-414, looked up)
COUP transcription factor 2: MAMVVSTWRDPQDEVPGSQGSQASQAPPVPGPPPGAPHTPQTPGQGGPASTPAQTAAGGQGGPGGPGSDKQQQQQHIECVVCGDKSSGKHYGQFTCEGCKSFFKRSVRRNLSYTCRANRNCPIDQHHRNQCQYCRLKKCLKVGMRREAVQRGRMPPTQPTHGQFALTNGDPLNCHSYLSGYISLLLRAEPYPTSRFGSQCMQPNNIMGIENICELAARMLFSAVEWARNIPFFPDLQITDQVALLRLTWSELFVLNAAQCSMPLHVAPLLAAAGLHASPMSADRVVAFMDHIRIFQEQVEKLKALHVDSAEYSCLKAIVLFTSDACGLSDVAHVESLQEKSQCALEEYVRSQYPNQPTRFGKLLLRLPSLRTVSSSVIEQLFFVRLVGKTPIETLIRDMLLSGSSFNWPYMAIQ
B6: sp¦Q61097¦KSR1_MOUSE (protein, UniProt Q61097 1-873, looked up)
Kinase suppressor of Ras 1: MDRAALRAAAMGEKKEGGGGGAAADGGAGAAVSRALQQCGQLQKLIDISIGSLRGLRTKCSVSNDLTQQEIRTLEAKLVKYICKQQQSKLSVTPSDRTAELNSYPRFSDWLYIFNVRPEVVQEIPQELTLDALLEMDEAKAKEMLRRWGASTEECSRLQQALTCLRKVTGLGGEHKMDSGWSSTDARDSSLGPPMDMLSSLGRAGASTQGPRSISVSALPASDSPVPGLSEGLSDSCIPLHTSGRLTPRALHSFITPPTTPQLRRHAKLKPPRTPPPPSRKVFQLLPSFPTLTRSKSHESQLGNRIDDVTPMKFELPHGSPQLVRRDIGLSVTHRFSTKSWLSQVCNVCQKSMIFGVKCKHCRLKCHNKCTKEAPACRITFLPLARLRRTESVPSDINNPVDRAAEPHFGTLPKALTKKEHPPAMNLDSSSNPSSTTSSTPSSPAPFLTSSNPSSATTPPNPSPGQRDSRFSFPDISACSQAAPLSSTADSTRLDDQPKTDVLGVHEAEAEEPEAGKSEAEDDEEDEVDDLPSSRRPWRGPISRKASQTSVYLQEWDIPFEQVELGEPIGQGRWGRVHRGRWHGEVAIRLLEMDGHNQDHLKLFKKEVMNYRQTRHENVVLFMGACMNPPHLAIITSFCKGRTLHSFVRDPKTSLDINKTRQIAQEIIKGMGYLHAKGIVHKDLKSKNVFYDNGKVVITDFGLFGISGVVREERRENQLKLSHDWLCYLAPEIVREMIPGRDEDQLPFSKAADVYAFGTVWYELQARDWPFKHQPAEALIWQIGSGEGVRRVLASVSLGKEVGEILSACWAFDLQERPSFSLLMDMLERLPKLNRRLSHPGHFWKSADINSSKVMPRFERFGLGTLESGNPKM
B7: sp¦P48381¦RFX3_MOUSE (protein, UniProt P48381 1-749, looked up)
Transcription factor RFX3: MQTSETGSDTGSTVTLQTSVASQAAVPTQVVQQVPVQQQVQQVQTVQQVQHVYPAQVQYVEGSDTVYTNGAIRTTTYPYTETQMYSQNTGGNYFDTQGSSAQVTTVVSSHSMVGTGGIQMGVTGGQLISSSGGTYLIGNSMENSGHSVTHTTRASPATIEMAIETLQKSDGLSTHRSSLLNSHLQWLLDNYETAEGVSLPRSTLYNHYLRHCQEHKLDPVNAASFGKLIRSIFMGLRTRRLGTRGNSKYHYYGIRVKPDSPLNRLQEDMQYMAMRQQPMQQKQRYKPMQKVDGVADGFTGSGQQTGTSVEQTVIAQSQHHQQFLDASRALPEFGEVEISSLPDGTTFEDIKSLQSLYREHCEAILDVVVNLQFSLIEKLWQTFWRYSPSTPADGTTITESSNLSEIESRLPKAKLITLCKHESILKWMCNCDHGMYQALVEILIPDVLRPIPSALTQAIRNFAKSLEGWLSNAMNNIPQRMIQTKVAAVSAFAQTLRRYTSLNHLAQAARAVLQNTSQINQMLSDLNRVDFANVQEQASWVCQCDDNMVQRLETDFKMTLQQQSTLEQWAAWLDNVMMQALKPYEGRPSFPKAARQFLLKWSFYSSMVIRDLTLRSAASFGSFHLIRLLYDEYMFYLVEHRVAQVTGETPIAVMGEFGDLNAVSPGNLDKDEGSEVESETDEDLDDSSEPRAKREKTELSQAFPVGCMQPVLESAVQPSLLNPLHSEHIVTSTQTIRQCSATGNTYTAV

tested on: hippocampal proteins; test: DIA quantification proteomics, hippocampus of Mdga2+/- vs WT mice; set-up: species or system mouse; conditions: Mdga2+/- vs WT mouse hippocampus (HET-HIP-VS-WT-HIP); S3 Table, downregulated DEPs; SE, pvalue and adj_pvalue in own columns c3-c5
Procedure: The hippocampus of 1.5–2-month-old Mdga2^ +/− male mice and their WT littermate controls was collected and sent to the BGI company for DIA quantification proteomics and data analysis. Briefly, samples were lysed and sonicated. After centrifugation, the supernatant was taken for quantification. Equal amounts of proteins (100 μg) per sample were subjected to trypsin enzymatic hydrolysis. After dryness, 10 μg enzymatic peptides per sample were separated by high-pH fractionation into a total of 10 fractions using high-performance liquid chromatography (HPLC) and freeze-dried. Data-dependent acquisition (DDA) fractions and DIA samples were analyzed by nano-LC–MS/MS. DDA data was identified by Andromeda search engine within MaxQuant. Identified results were used by Spectronaut^TM for spectral library construction. For DIA data, Spectronaut^TM used the constructed spectral library information to complete deconvolution and extraction, and used the mProphet algorithm to complete analytical quality control for obtaining reliable quantitative results. The mass spectrometry proteomics data have been deposited to the ProteomeXchange Consortium via the PRIDE [62] partner repository with the dataset identifier PXD050810. DEPs between comparison groups were identified based on the quantitative results, using the fold change >1.1 and p-value <0.05 as the criteria. After retrieval from the UniProtKB database, identified DEPs were processed for GO analysis by using DAVID (https://david.ncifcrf.gov/home.jsp) and Metascape database (https://metascape.org/gp/index.html).

Molecule	log2FC
B1	-1.516
B2	-1.692
B3	-1.505
B4	-1.549
B5	-1.636
B6	-1.493
B7	-1.5061

same assay, conditions: regulation class of the protein, HET-HIP-VS-WT-HIP; S3 Table, downregulated DEPs

Molecule	Class
B1	Down
B2	Down
B3	Down
B4	Down
B5	Down
B6	Down
B7	Down
